This experiment deals with HIV-1JR-FLΔCT Env trimer (HIV-1 JR-FL) (UniProt Q75760). The experiment is described as follows: flow cytometry on cells. Background: In flow cytometry, cells or beads pass a laser one at a time.

Regarding “C34-Ig, fusion protein of an immunoglobulin Fc and the gp41 HR2 peptide (Fc fusion)”, the percent of Env-expressing cells binding C34-Ig turned out to be 37%.

Source of the values: publication PMC4231716.
